In patent US20250188184A1:

The binders below were run against CD3 (target of the Pool 1 CD3.23 screen) (assay: Octet, crude lysate).
Sequence of CD3 (target of the Pool 1 CD3.23 screen) (P07766 23-126): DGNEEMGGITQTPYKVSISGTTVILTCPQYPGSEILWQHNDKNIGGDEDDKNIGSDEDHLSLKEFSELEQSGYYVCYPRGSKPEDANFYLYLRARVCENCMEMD

| Kd | Binder |
| --- | --- |
| 0.0085 µM | CD3.23-L7 (AC3364) (bispecific antibody, V domains shown) VH: EVQLLESGGGIVQPGGSLKLSCAASGFTFNTYAMNWVRQAPGKGLEWVARIRSKYNNYATYYADSVKDRFTISRDDSKNTVYLQMNNLKTEDTAVYYCVRHENFGNSYVSWFAHWGQGTLVTVSS VL: ELVVTQEPSLTVSPGGTVTLTCRSSNGAVTSSNYANWVQQKPGQAPRGLIGGTNKRAPGTPARFSGSLLGGKAALTLSGVQPEDEAVYYCALWYPNLWVFGGGTKLTVL |
| 0.0083 µM | CD3.40 (AC3369) (bispecific antibody, V domains shown) VH: EVQLLESGGGIVQPGGSLKLSCAASGFTFNTYAMNWVRQAPGKGLEWAARIRSKYNNYATYYADSVKDRFTISRDDSKNTVYLQMNNLKTEDTAVYYCVRHENFGNSYVSWFAHWGQGTLVTVSS VL: ELVVTQEPSLTVSPGGTVTLTCRSSNGAVTSSNYANWVQQKPGQAPRGLIGGTNKRAPGTPARFSGSLLGGKAALTLSGVQPEDEAVYYCALWYPNLWVFGGGTKLTVL |
| 0.0201 µM | CD3.71 (AC3400) (bispecific antibody, V domains shown) VH: EVQLLESGGGIVQPGGSLKLSCAASGFTFNTYAMNWVRQAPGKGLEWVARIRSKGNNYATYYADSVKDRFTISRDDSKNTVYLQMNNLKTEDTAVYYCVRHENFGNSYVSWFAHWGQGTLVTVSS VL: ELVVTQEPSLTVSPGGTVTLTCRSSNGAVTSSNYANWVQQKPGQAPRGLIGGTNKRAPGTPARFSGSLLGGKAALTLSGVQPEDEAVYYCALWYPNLWVFGGGTKLTVL |
| 0.0112 µM | CD3.43 (AC3372) (bispecific antibody, V domains shown) VH: EVQLLESGGGIVQPGGSLKLSCAASGFTFNTYAMNWVRQAPGKGLEWSARIRSKYNNYATYYADSVKDRFTISRDDSKNTVYLQMNNLKTEDTAVYYCVRHENFGNSYVSWFAHWGQGTLVTVSS VL: ELVVTQEPSLTVSPGGTVTLTCRSSNGAVTSSNYANWVQQKPGQAPRGLIGGTNKRAPGTPARFSGSLLGGKAALTLSGVQPEDEAVYYCALWYPNLWVFGGGTKLTVL |
| 0.0048 µM | CD3.67 (AC3396) (bispecific antibody, V domains shown) VH: EVQLLESGGGIVQPGGSLKLSCAASGFTFNTYAMNWVRQAPGKGLEWVARIRTKYNNYATYYADSVKDRFTISRDDSKNTVYLQMNNLKTEDTAVYYCVRHENFGNSYVSWFAHWGQGTLVTVSS VL: ELVVTQEPSLTVSPGGTVTLTCRSSNGAVTSSNYANWVQQKPGQAPRGLIGGTNKRAPGTPARFSGSLLGGKAALTLSGVQPEDEAVYYCALWYPNLWVFGGGTKLTVL |
| 0.014 µM | CD3.23-D (AC3366) (bispecific antibody, V domains shown) VH: EVQLLESGGGIVQPGGSLKLSCAASGFTFNTYAMNWVRQAPGKGLEWVARIRSKYNNYATYYADSVKDRFTISRDDSKNTVYLQMNNLKTEDTAVYYCVRHENFGNSYVSWFAHWGQGTLVTVSS VL: ELVVTQEPSLTVSPGGTVTLTCRSSNGAVTSSNYANWVQQKPGQAPRGLIGGTNKRAPGTPARFSGSLLGGKAALTLSGVQPEDEAVYYCALWYPNLWVFGGGTKLTVL |
| 0.0057 µM | CD3.44 (AC3373) (bispecific antibody, V domains shown) VH: EVQLLESGGGIVQPGGSLKLSCAASGFTFNTYAMNWVRQAPGKGLEWTARIRSKYNNYATYYADSVKDRFTISRDDSKNTVYLQMNNLKTEDTAVYYCVRHENFGNSYVSWFAHWGQGTLVTVSS VL: ELVVTQEPSLTVSPGGTVTLTCRSSNGAVTSSNYANWVQQKPGQAPRGLIGGTNKRAPGTPARFSGSLLGGKAALTLSGVQPEDEAVYYCALWYPNLWVFGGGTKLTVL |
| 0.0051 µM | CD3.72 (AC3401) (bispecific antibody, V domains shown) VH: EVQLLESGGGIVQPGGSLKLSCAASGFTFNTYAMNWVRQAPGKGLEWVARIRSKKNNYATYYADSVKDRFTISRDDSKNTVYLQMNNLKTEDTAVYYCVRHENFGNSYVSWFAHWGQGTLVTVSS VL: ELVVTQEPSLTVSPGGTVTLTCRSSNGAVTSSNYANWVQQKPGQAPRGLIGGTNKRAPGTPARFSGSLLGGKAALTLSGVQPEDEAVYYCALWYPNLWVFGGGTKLTVL |
| 0.0115 µM | CD3.69 (AC3398) (bispecific antibody, V domains shown) VH: EVQLLESGGGIVQPGGSLKLSCAASGFTFNTYAMNWVRQAPGKGLEWVARIRSKANNYATYYADSVKDRFTISRDDSKNTVYLQMNNLKTEDTAVYYCVRHENFGNSYVSWFAHWGQGTLVTVSS VL: ELVVTQEPSLTVSPGGTVTLTCRSSNGAVTSSNYANWVQQKPGQAPRGLIGGTNKRAPGTPARFSGSLLGGKAALTLSGVQPEDEAVYYCALWYPNLWVFGGGTKLTVL |
| 1.18 µM | CD3.54 (AC3383) (bispecific antibody, V domains shown) VH: EVQLLESGGGIVQPGGSLKLSCAASGFTFNTYAMNWVRQAPGKGLEWVARARSKYNNYATYYADSVKDRFTISRDDSKNTVYLQMNNLKTEDTAVYYCVRHENFGNSYVSWFAHWGQGTLVTVSS VL: ELVVTQEPSLTVSPGGTVTLTCRSSNGAVTSSNYANWVQQKPGQAPRGLIGGTNKRAPGTPARFSGSLLGGKAALTLSGVQPEDEAVYYCALWYPNLWVFGGGTKLTVL |
| 0.0402 µM | CD3.38 (AC3367) (bispecific antibody, V domains shown) VH: EVQLLESGGGIVQPGGSLKLSCAASGFTFNTYAMNWVRQAPGKGLEDVARIRSKYNNYATYYADSVKDRFTISRDDSKNTVYLQMNNLKTEDTAVYYCVRHENFGNSYVSWFAHWGQGTLVTVSS VL: ELVVTQEPSLTVSPGGTVTLTCRSSNGAVTSSNYANWVQQKPGQAPRGLIGGTNKRAPGTPARFSGSLLGGKAALTLSGVQPEDEAVYYCALWYPNLWVFGGGTKLTVL |
| 0.0331 µM | CD3.73 (AC3402) (bispecific antibody, V domains shown) VH: EVQLLESGGGIVQPGGSLKLSCAASGFTFNTYAMNWVRQAPGKGLEWVARIRSKPNNYATYYADSVKDRFTISRDDSKNTVYLQMNNLKTEDTAVYYCVRHENFGNSYVSWFAHWGQGTLVTVSS VL: ELVVTQEPSLTVSPGGTVTLTCRSSNGAVTSSNYANWVQQKPGQAPRGLIGGTNKRAPGTPARFSGSLLGGKAALTLSGVQPEDEAVYYCALWYPNLWVFGGGTKLTVL |
| 0.0045 µM | CD3.48 (AC3377) (bispecific antibody, V domains shown) VH: EVQLLESGGGIVQPGGSLKLSCAASGFTFNTYAMNWVRQAPGKGLEWVGRIRSKYNNYATYYADSVKDRFTISRDDSKNTVYLQMNNLKTEDTAVYYCVRHENFGNSYVSWFAHWGQGTLVTVSS VL: ELVVTQEPSLTVSPGGTVTLTCRSSNGAVTSSNYANWVQQKPGQAPRGLIGGTNKRAPGTPARFSGSLLGGKAALTLSGVQPEDEAVYYCALWYPNLWVFGGGTKLTVL |
| 0.0715 µM | CD3.42 (AC3371) (bispecific antibody, V domains shown) VH: EVQLLESGGGIVQPGGSLKLSCAASGFTFNTYAMNWVRQAPGKGLEWGARIRSKYNNYATYYADSVKDRFTISRDDSKNTVYLQMNNLKTEDTAVYYCVRHENFGNSYVSWFAHWGQGTLVTVSS VL: ELVVTQEPSLTVSPGGTVTLTCRSSNGAVTSSNYANWVQQKPGQAPRGLIGGTNKRAPGTPARFSGSLLGGKAALTLSGVQPEDEAVYYCALWYPNLWVFGGGTKLTVL |
| 0.051 µM | CD3.68 (AC3397) (bispecific antibody, V domains shown) VH: EVQLLESGGGIVQPGGSLKLSCAASGFTFNTYAMNWVRQAPGKGLEWVARIRSPYNNYATYYADSVKDRFTISRDDSKNTVYLQMNNLKTEDTAVYYCVRHENFGNSYVSWFAHWGQGTLVTVSS VL: ELVVTQEPSLTVSPGGTVTLTCRSSNGAVTSSNYANWVQQKPGQAPRGLIGGTNKRAPGTPARFSGSLLGGKAALTLSGVQPEDEAVYYCALWYPNLWVFGGGTKLTVL |
| 0.0111 µM | CD3.74 (AC3403) (bispecific antibody, V domains shown) VH: EVQLLESGGGIVQPGGSLKLSCAASGFTFNTYAMNWVRQAPGKGLEWVARIRSKTNNYATYYADSVKDRFTISRDDSKNTVYLQMNNLKTEDTAVYYCVRHENFGNSYVSWFAHWGQGTLVTVSS VL: ELVVTQEPSLTVSPGGTVTLTCRSSNGAVTSSNYANWVQQKPGQAPRGLIGGTNKRAPGTPARFSGSLLGGKAALTLSGVQPEDEAVYYCALWYPNLWVFGGGTKLTVL |
| 0.0181 µM | CD3.39 (AC3368) (bispecific antibody, V domains shown) VH: EVQLLESGGGIVQPGGSLKLSCAASGFTFNTYAMNWVRQAPGKGLEEVARIRSKYNNYATYYADSVKDRFTISRDDSKNTVYLQMNNLKTEDTAVYYCVRHENFGNSYVSWFAHWGQGTLVTVSS VL: ELVVTQEPSLTVSPGGTVTLTCRSSNGAVTSSNYANWVQQKPGQAPRGLIGGTNKRAPGTPARFSGSLLGGKAALTLSGVQPEDEAVYYCALWYPNLWVFGGGTKLTVL |
| 0.434 µM | CD3.60 (AC3389) (bispecific antibody, V domains shown) VH: EVQLLESGGGIVQPGGSLKLSCAASGFTFNTYAMNWVRQAPGKGLEWVARIQSKYNNYATYYADSVKDRFTISRDDSKNTVYLQMNNLKTEDTAVYYCVRHENFGNSYVSWFAHWGQGTLVTVSS VL: ELVVTQEPSLTVSPGGTVTLTCRSSNGAVTSSNYANWVQQKPGQAPRGLIGGTNKRAPGTPARFSGSLLGGKAALTLSGVQPEDEAVYYCALWYPNLWVFGGGTKLTVL |
| 0.425 µM | CD3.56 (AC3385) (bispecific antibody, V domains shown) VH: EVQLLESGGGIVQPGGSLKLSCAASGFTFNTYAMNWVRQAPGKGLEWVARTRSKYNNYATYYADSVKDRFTISRDDSKNTVYLQMNNLKTEDTAVYYCVRHENFGNSYVSWFAHWGQGTLVTVSS VL: ELVVTQEPSLTVSPGGTVTLTCRSSNGAVTSSNYANWVQQKPGQAPRGLIGGTNKRAPGTPARFSGSLLGGKAALTLSGVQPEDEAVYYCALWYPNLWVFGGGTKLTVL |
| 0.165 µM | CD3.41 (AC3370) (bispecific antibody, V domains shown) VH: EVQLLESGGGIVQPGGSLKLSCAASGFTFNTYAMNWVRQAPGKGLEWEARIRSKYNNYATYYADSVKDRFTISRDDSKNTVYLQMNNLKTEDTAVYYCVRHENFGNSYVSWFAHWGQGTLVTVSS VL: ELVVTQEPSLTVSPGGTVTLTCRSSNGAVTSSNYANWVQQKPGQAPRGLIGGTNKRAPGTPARFSGSLLGGKAALTLSGVQPEDEAVYYCALWYPNLWVFGGGTKLTVL |
| 34.3 µM | CD3.45 (AC3374) (bispecific antibody, V domains shown) VH: EVQLLESGGGIVQPGGSLKLSCAASGFTFNTYAMNWVRQAPGKGLEWWARIRSKYNNYATYYADSVKDRFTISRDDSKNTVYLQMNNLKTEDTAVYYCVRHENFGNSYVSWFAHWGQGTLVTVSS VL: ELVVTQEPSLTVSPGGTVTLTCRSSNGAVTSSNYANWVQQKPGQAPRGLIGGTNKRAPGTPARFSGSLLGGKAALTLSGVQPEDEAVYYCALWYPNLWVFGGGTKLTVL |
| 0.0038 µM | CD3.70 (AC3399) (bispecific antibody, V domains shown) VH: EVQLLESGGGIVQPGGSLKLSCAASGFTFNTYAMNWVRQAPGKGLEWVARIRSKRNNYATYYADSVKDRFTISRDDSKNTVYLQMNNLKTEDTAVYYCVRHENFGNSYVSWFAHWGQGTLVTVSS VL: ELVVTQEPSLTVSPGGTVTLTCRSSNGAVTSSNYANWVQQKPGQAPRGLIGGTNKRAPGTPARFSGSLLGGKAALTLSGVQPEDEAVYYCALWYPNLWVFGGGTKLTVL |
